Test results reported in IntAct's records for PubMed 22634751.

B1: Cyclin-dependent kinase inhibitor 1C (Homo sapiens), P49918 (parent)
chain: MSDASLRSTSTMERLVARGTFPVLVRTSACRSLFGPVDHEELSRELQARLAELNAEDQNRWDYDFQQDMPLRGPGRLQWTEVDSDSVPAFYRETVQVGRCRLLLAPRPVAVAVAVSPPLEPAAESLDGLEEAPEQLPSVPVPAPASTPPPVPVLAPAPAPAPAPVAAPVAAPVAVAVLAPAPAPAPAPAPAPAPVAAPAPAPAPAPAPAPAPAPAPDAAPQESAEQGANQGQRGQEPLADQLHSGISGRPAAGTAAASANGAAIKKLSGPLISDFFAKRKRSAPEKSSGDVPAPCPSPSAAPGVGSVEQTPRKRLR

Variants of: B1
Conditions: with pcna_human PCNA
With MSDASLRSTSTMERLVARGTFPVLVRTSACRSLFGPVDHEELSRELQARLAELNAEDQNRWDYDFQQDMPLRGPGRLQWTEVDSDSVPAFYRETVQVGRCRLLLAPRPVAVAVAVSPPLEPAAESLDGLEEAPEQLPSVPVPAPASTPPPVPVLAPAPAPAPAPVAAPVAAPVAVAVLAPAPAPAPAPAPAPAPVAAPAPAPAPAPAPAPAPAPAPDAAPQESAEQGANQGQRGQEPLADQLHSGISGRPAAGTAAASANGAAIKKLSGPLISDFVAKRKRSAPEKSSGDVPAPCPSPSAAPGVGSVEQTPRKRLR [F276V] the “effect of a mutation on the interaction” value was “disrupting interaction”.
With MSDASLRSTSTMERLVARGTFPVLVRTSACRSLFGPVDHEELSRELQARLAELNAEDQNRWDYDFQQDMPLRGPGRLQWTEVDSDSVPAFYRETVQVGRCRLLLAPRPVAVAVAVSPPLEPAAESLDGLEEAPEQLPSVPVPAPASTPPPVPVLAPAPAPAPAPVAAPVAAPVAVAVLAPAPAPAPAPAPAPAPVAAPAPAPAPAPAPAPAPAPAPDAAPQESAEQGANQGQRGQEPLADQLHSGISGRPAAGTAAASANGAAIKKLSGPLISDFFAERKRSAPEKSSGDVPAPCPSPSAAPGVGSVEQTPRKRLR [K278E] the “effect of a mutation on the interaction” value was “disrupting interaction”.
